# Laboratory results taken from the Human Domainome abundance scans (Beltran et al. 2025).
# ± gives the uncertainty stated by the source.
# B1: Dynamin-binding protein, residues 242 to 304; numbered along this chain, Q6XZF7 (parent)
# chain: EEPGTYGVALYRFQALEPNELDFEVGDKIRILATLEDGWLEGSLKGRTGIFPYRFVKLCPDTR
# Variants of: B1
# Assay: abundance fitness (aPCA) (normalised: wild type 0, dead -1); higher = more abundant; growth selection in yeast, the domain comes from the species named
# Details: Homo sapiens
row,Variant,abundance fitness
1,K28I,-0.278 ± 0.084
2,K28R,-0.05 ± 0.053
3,K28F,-0.596 ± 0.096
4,K28E,-0.157 ± 0.13
5,K28T,-0.282 ± 0.08
6,K28A,-0.7 ± 0.1
7,K28P,-0.553 ± 0.18
8,K28S,-0.535 ± 0.074
9,K28H,-0.044 ± 0.087
10,K28N,-0.418 ± 0.086
11,K28V,-0.205 ± 0.056
12,K28Y,-0.519 ± 0.12
13,K28M,-0.529 ± 0.19
14,E20A,-0.163 ± 0.076
15,E20S,-0.468 ± 0.059
16,E20F,0.155 ± 0.056
17,E20M,0.023 ± 0.11
18,E20D,-0.631 ± 0.098
19,E20L,-0.067 ± 0.056
20,E20K,-0.068 ± 0.11
21,E20Q,0.069 ± 0.12
22,E20R,-0.258 ± 0.062
23,E20I,-0.65 ± 0.095
24,E20V,-0.703 ± 0.086

row,Variant,abundance fitness
1,E20Y,0.059 ± 0.056
2,E20C,-0.014 ± 0.05
3,E20T,0.06 ± 0.069
4,E20G,-0.246 ± 0.057
5,E20N,-0.227 ± 0.071
6,E20P,-1.03 ± 0.35
7,G26Q,-0.061 ± 0.2
8,G26V,-0.844 ± 0.086
9,G26I,-0.744 ± 0.094
10,G26A,-0.86 ± 0.15
11,G26Y,-0.847 ± 0.17
12,G26T,-0.831 ± 0.14
13,G26E,-1.01 ± 0.34
14,G26D,-0.568 ± 0.091
15,G26K,-0.643 ± 0.39
16,G26S,-0.674 ± 0.069
17,G26R,-0.866 ± 0.099
18,G26H,-0.718 ± 0.11
19,G26M,-1.02 ± 0.26
20,G26L,-0.598 ± 0.087
21,G26P,-1.07 ± 0.22
22,G26F,-0.682 ± 0.09
23,G26C,-0.334 ± 0.054
24,G26N,-0.563 ± 0.087

row,Variant,abundance fitness
1,I29N,-0.845 ± 0.11
2,I29C,-0.839 ± 0.11
3,I29Y,-0.808 ± 0.12
4,I29G,-0.738 ± 0.087
5,I29D,-0.685 ± 0.1
6,I29Q,-0.955 ± 0.41
7,I29T,-0.639 ± 0.12
8,I29M,-0.735 ± 0.24
9,I29R,-0.649 ± 0.1
10,I29F,-0.561 ± 0.078
11,I29L,-0.573 ± 0.093
12,I29W,-0.823 ± 0.37
13,I29E,-0.721 ± 0.22
14,I29V,-0.533 ± 0.072
15,I29S,-0.776 ± 0.075
16,I29H,-0.634 ± 0.11
17,I29A,-0.702 ± 0.11
18,I29P,-0.35 ± 0.11
19,L16F,-0.067 ± 0.068
20,L16W,-0.501 ± 0.16
21,L16V,0.117 ± 0.05
22,L16R,0.316 ± 0.058
23,L16K,-0.077 ± 0.25
24,L16H,0.141 ± 0.074

row,Variant,abundance fitness
1,L16Y,-0.137 ± 0.06
2,L16M,0.242 ± 0.12
3,L16S,0.29 ± 0.048
4,L16I,0.03 ± 0.06
5,L16G,0.073 ± 0.067
6,L16P,-0.697 ± 0.22
7,L16N,0.35 ± 0.054
8,L16T,0.344 ± 0.062
9,L16Q,0.284 ± 0.12
10,P18G,-0.492 ± 0.061
11,P18Y,-0.473 ± 0.077
12,P18Q,-0.042 ± 0.2
13,P18N,-0.275 ± 0.071
14,P18W,-0.424 ± 0.11
15,P18S,-0.113 ± 0.05
16,P18H,-0.291 ± 0.078
17,P18T,-0.333 ± 0.094
18,P18K,-0.336 ± 0.17
19,P18A,-0.188 ± 0.063
20,P18M,-0.419 ± 0.19
21,P18V,-0.332 ± 0.062
22,P18F,-0.659 ± 0.095
23,P18D,-0.044 ± 0.059
24,P18C,-0.412 ± 0.061

row,Variant,abundance fitness
1,P18R,-0.04 ± 0.053
2,P18E,-0.006 ± 0.13
3,P18L,-0.42 ± 0.075
4,D27K,-0.902 ± 0.49
5,D27N,-0.424 ± 0.086
6,D27G,-0.776 ± 0.083
7,D27E,-0.316 ± 0.15
8,D27I,-0.786 ± 0.13
9,D27L,-0.642 ± 0.092
10,D27H,-0.927 ± 0.15
11,D27Y,-0.587 ± 0.09
12,D27C,-0.811 ± 0.099
13,D27W,-0.485 ± 0.16
14,D27A,-0.426 ± 0.096
15,D27F,-0.799 ± 0.11
16,D27T,-0.656 ± 0.18
17,D27V,-0.934 ± 0.12
18,D27R,-0.79 ± 0.1
19,D27S,-0.695 ± 0.078
20,D27Q,-0.723 ± 0.23
21,D27M,-0.537 ± 0.24
22,D22N,-0.04 ± 0.052
23,D22C,-0.125 ± 0.052
24,D22Y,-0.108 ± 0.051

row,Variant,abundance fitness
1,D22G,-0.02 ± 0.051
2,D22E,0.043 ± 0.11
3,D22T,-0.054 ± 0.062
4,D22W,-0.624 ± 0.18
5,D22A,0.25 ± 0.058
6,D22I,-0.913 ± 0.11
7,D22R,-0.185 ± 0.058
8,D22F,-0.016 ± 0.059
9,D22Q,0.148 ± 0.11
10,D22S,0.101 ± 0.046
11,D22P,0.157 ± 0.074
12,D22V,-0.682 ± 0.084
13,D22M,-0.301 ± 0.13
14,D22K,-0.062 ± 0.16
15,L21H,-0.469 ± 0.13
16,L21A,-1.01 ± 0.17
17,L21M,-0.852 ± 0.32
18,L21N,-0.843 ± 0.28
19,L21V,-0.619 ± 0.097
20,L21D,-1.03 ± 0.39
21,L21P,-0.782 ± 0.19
22,L21K,-0.744 ± 0.42
23,L21G,-0.96 ± 0.13
24,L21I,-0.636 ± 0.19

row,Variant,abundance fitness
1,L21F,-0.771 ± 0.091
2,L21S,-0.542 ± 0.078
3,L21T,-0.522 ± 0.09
4,L21Y,-1.03 ± 0.26
5,L21Q,-0.455 ± 0.2
6,L21R,-0.839 ± 0.11
7,L21C,-0.851 ± 0.1
8,L21E,-0.643 ± 0.38
9,R30E,-0.328 ± 0.25
10,R30L,-0.148 ± 0.089
11,R30S,-0.41 ± 0.062
12,R30A,-0.155 ± 0.075
13,R30M,-0.651 ± 0.23
14,R30C,-0.367 ± 0.076
15,R30N,-0.306 ± 0.069
16,R30V,-0.73 ± 0.1
17,R30I,-0.454 ± 0.087
18,R30W,-0.921 ± 0.24
19,R30Y,-0.398 ± 0.085
20,R30P,-0.15 ± 0.17
21,R30F,-0.462 ± 0.1
22,R30K,0.268 ± 0.13
23,R30T,-0.644 ± 0.12
